Assay results from the supplement of paper PMC10567573.

B1: HESX1 (parent)
chain: HVPNPPSGISFPSVVDHPMPEERA
B2: WEE1 (parent)
chain: INPFTPDSLLLHSSGQCRRRKRTY

Variants of: B1
Assay: protein stability index of a GFP-peptide fusion (GPS, HEK-293T) (PSI 1-6); higher = more stable
Conditions: c terminus: a fixed tail appended
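Further: lentivirally expressed fusions sorted by FACS into six bins by GFP to DsRed ratio, PSI derived from sequencing read proportions per bin multiplied by bin number.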

Variant | protein stability index
HVPNPPSGISFPSVVDHPMPEEVA [R23V] | 2.49
HVPNPPSGISFPSVVDHPMPEEIA [R23I] | 2.58
HVPNPPSGISFPSVVDHPMPEEFA [R23F] | 2.11
HVPNPPSGISFPSVVDHPMPEEKA [R23K] | 2.77
HVPNPPSGISFPSVVDHPMPEESA [R23S] | 2.36
HVPNPPSGISFPSVVDHPMPEEYA [R23Y] | 2.34
HVPNPPSGISFPSVVDHPMPEEEA [R23E] | 2.76
HVPNPPSGISFPSVVDHPMPEEPA [R23P] | 2.76
HVPNPPSGISFPSVVDHPMPEEQA [R23Q] | 2.21
HVPNPPSGISFPSVVDHPMPEEWA [R23W] | 2.37
HVPNPPSGISFPSVVDHPMPEELA [R23L] | 2.1
HVPNPPSGISFPSVVDHPMPEEGA [R23G] | 3.19
HVPNPPSGISFPSVVDHPMPEEAA [R23A] | 2.53
HVPNPPSGISFPSVVDHPMPEEMA [R23M] | 2.38
HVPNPPSGISFPSVVDHPMPEEDA [R23D] | 3
HVPNPPSGISFPSVVDHPMPEETA [R23T] | 2.6
HVPNPPSGISFPSVVDHPMPEEHA [R23H] | 2.99
HVPNPPSGISFPSVVDHPMPEENA [R23N] | 2.73
HVPNPPSGISFPSVVDHPMPEECA [R23C] | 2.56
HVPNPPSGISFPSVVDWPMPEERA [H17W] | 2.19
HVPNPPSGISFPSVVDAPMPEERA [H17A] | 3.2
HVPNPPSGISFPSVVDFPMPEERA [H17F] | 2.15
HVPNPPSGISFPSVVDEPMPEERA [H17E] | 3.29

Variant | protein stability index
HVPNPPSGISFPSVVDMPMPEERA [H17M] | 2.52
HVPNPPSGISFPSVVDPPMPEERA [H17P] | 2.11
HVPNPPSGISFPSVVDRPMPEERA [H17R] | 2.77
HVPNPPSGISFPSVVDKPMPEERA [H17K] | 2.24
HVPNPPSGISFPSVVDGPMPEERA [H17G] | 2.82
HVPNPPSGISFPSVVDDPMPEERA [H17D] | 3.28
HVPNPPSGISFPSVVDLPMPEERA [H17L] | 2.39
HVPNPPSGISFPSVVDQPMPEERA [H17Q] | 2.68
HVPNPPSGISFPSVVDVPMPEERA [H17V] | 2.57
HVPNPPSGISFPSVVDIPMPEERA [H17I] | 2.66
HVPNPPSGISFPSVVDTPMPEERA [H17T] | 2.94
HVPNPPSGISFPSVVDSPMPEERA [H17S] | 3.01
HVPNPPSGISFPSVVDNPMPEERA [H17N] | 2.8
HVPNPPSGISFPSVVDYPMPEERA [H17Y] | 2.52
HVPNPPSGISFPSVVDCPMPEERA [H17C] | 2.39
HVPNPPSGISFPSVVDHPMPEKRA [E22K] | 1.83
HVPNPPSGISFPSVVDHPMPETRA [E22T] | 2.33
HVPNPPSGISFPSVVDHPMPEFRA [E22F] | 1.9
HVPNPPSGISFPSVVDHPMPEIRA [E22I] | 2.75
HVPNPPSGISFPSVVDHPMPEYRA [E22Y] | 2.68
HVPNPPSGISFPSVVDHPMPEWRA [E22W] | 2.37
HVPNPPSGISFPSVVDHPMPEMRA [E22M] | 2.15
HVPNPPSGISFPSVVDHPMPEQRA [E22Q] | 2.77

Variant | protein stability index
HVPNPPSGISFPSVVDHPMPECRA [E22C] | 2.15
HVPNPPSGISFPSVVDHPMPEDRA [E22D] | 2.76
HVPNPPSGISFPSVVDHPMPEVRA [E22V] | 2.16
HVPNPPSGISFPSVVDHPMPELRA [E22L] | 1.94
HVPNPPSGISFPSVVDHPMPEHRA [E22H] | 2.29
HVPNPPSGISFPSVVDHPMPERRA [E22R] | 2.26
HVPNPPSGISFPSVVDHPMPEPRA [E22P] | 2.17
HVPNPPSGISFPSVVDHPMPESRA [E22S] | 2.3
HVPNPPSGISFPSVVDHPMPEARA [E22A] | 2.72
HVPNPPSGISFPSVVDHPMPENRA [E22N] | 2.02
HVPNPPSGISFPSVVDHPMPEGRA [E22G] | 2.08
HVPNPPSGISFPSVVVHPMPEERA [D16V] | 2.35
HVPNPPSGISFPSVVLHPMPEERA [D16L] | 2.36
HVPNPPSGISFPSVVTHPMPEERA [D16T] | 2.03
HVPNPPSGISFPSVVYHPMPEERA [D16Y] | 2.57
HVPNPPSGISFPSVVNHPMPEERA [D16N] | 2
HVPNPPSGISFPSVVWHPMPEERA [D16W] | 1.57
HVPNPPSGISFPSVVMHPMPEERA [D16M] | 2.19
HVPNPPSGISFPSVVPHPMPEERA [D16P] | 2.37
HVPNPPSGISFPSVVSHPMPEERA [D16S] | 2.22
HVPNPPSGISFPSVVRHPMPEERA [D16R] | 2.51
HVPNPPSGISFPSVVQHPMPEERA [D16Q] | 2.51

Variants of: B2
Assay: as above
Conditions: c terminus: a fixed tail appended

Variant | protein stability index
INPFTPDSLLLHSSGQCRRRKRTD [Y24D] | 4.27
INPFRPDSLLLHSSGQCRRRKRTY [T5R] | 3.41
INQFTPDSLLLHSSGQCRRRKRTY [P3Q] | 3.35
INRFTPDSLLLHSSGQCRRRKRTY [P3R] | 3.4
INPFTPDSLLLHSSGQCRRRKKTY [R22K] | 3.59
WNPFTPDSLLLHSSGQCRRRKRTY [I1W] | 3.83
INPFTPDSLLLHSSGQCRRRNRTY [K21N] | 3.59
INPFTPDSLLLHSSGQSRRRKRTY [C17S] | 4
INPFTPDSLLLHSSGQTRRRKRTY [C17T] | 4.03
INPFTPDSLLLHSSGQMRRRKRTY [C17M] | 4.1
INPFTPDSLLLHSSGQCRWRKRTY [R19W] | 2.66
INPFTPDSLLLHSSGQCRQRKRTY [R19Q] | 3.27
INPFTPDSLLLHSSGQCRRVKRTY [R20V] | 2.94
INPFTPDSLLLHSSGQCRRNKRTY [R20N] | 3.45
INPFTPDSLLLHSSGRCRRRKRTY [Q16R] | 3.95
INPFTPDELLLHSSGQCRRRKRTY [S8E] | 4.08
ISPFTPDSLLLHSSGQCRRRKRTY [N2S] | 3.54
INPFTPDSLLLHGSGQCRRRKRTY [S13G] | 3.17
INPFTPDSLLLHSSGQCRRRKRGY [T23G] | 3.87
INPFTPDSLLLHSTGQCRRRKRTY [S14T] | 3.37
INPFTPDSLCLHSSGQCRRRKRTY [L10C] | 3.68
INPFTPDSLILHSSGQCRRRKRTY [L10I] | 3.61
INPFTPDSLFLHSSGQCRRRKRTY [L10F] | 3.42
INPFTPDSDLLHSSGQCRRRKRTY [L9D] | 4.2
INPFTPESLLLHSSGQCRRRKRTY [D7E] | 3.6
INPFTPRSLLLHSSGQCRRRKRTY [D7R] | 3.39
